{
  "source": "patent US20240392020A1",
  "about": "(JIANGSU HENGRUI PHARMACEUTICALS, published 2024)",
  "binders": {"B1": {"name": "Chain formed by replacement of CL of light chain of B0 with O.20 (other)", "light": "SSELTQDPAVSVALGQTVRVTCQGDSLRSYYASWYQQKPGQAPVLVIYGKNNRPSGIPDRFSGSSSGNTASLTITGAQAEDEADYYCSSRDSSGNHWVFGGGTELTVLSGAPRFLTRPLAFVVSVGKDATLSSQIVGNPTPQVSWEKDKQPVTAGARFRLAQDGDLYRLKILDLQLSDSGQYVSRARNAIGEAFACLGLQVDAEA", "notes": "single antibody chain, co-expressed; also called B-L1 of B/U-1 and B/U-2"}, "B2": {"name": "Light chain of I3 (other)", "light": "DIQMTQSPSSLSASVGDRVTITCRASQSISNNLNWYQQKPGKAPKLLIYYTSRFHSGVPSRFSGSGSGTDFTFTISSLQPEDIATYYCQQEHTLPYTFGQGTKLEIKSGAPRFLTRPLAFVVSVGKDATLSSQIVGNPTPQVSWEKDKQPVTAGARFRLAQDGDLYRLKILDLQLSDSGQYVSRARNAIGEAFACLGLQVDAEA", "notes": "single antibody chain, co-expressed"}, "B3": {"name": "P-O-T (bispecific antibody, human IgG1, kappa)", "heavy": "not shown", "light 1": "DIVLTQSPASLAVSPGQRATITCRASESVSIHGTHLMHWYQQKPGQPPKLLIYAASKLESGVPARFSGSGSGTDFTLTINPVEAEDTANYYCQQSFEDPLTFGQGTKLEIKGGGGSGIPPKIECLPIDISIDEGKVLTVASAFTGEPTPEVTWSTGGRKIHSQEQGRFHIENTDDLTTLIIKDVQKQDGGLYTLTLRNEFGSDSATVNIHIRSI", "light 2": "DIQMTQSPSSLSASVGDRVTITCRASENIYSYLAWYQQKPGKSPKLLIYNARTLAEGVPSRFSGSGSGTDFTLTISSLQPEDFATYYCQYHSGSPLPFGGGTKVEIKRTVAAPSVFIFPPSDEQLKSGTASVVCLLNNFYPREAKVQWKVDNALQSGNSQESVTEQDSKDSTYSLSSTLTLSKADYEKHKVYACEVTHQGLSSPVTKSFNRGEC", "notes": "also called anti-PDL1-TIGIT bispecific antibody in a (FabV)2-IgG form; PDL1-TIGIT bispecific antibody"}, "B4": {"name": "Light chain of J1 (other)", "light": "SIVMTQTPLSLSVTPGQPASISCKASQSVSSDVTWYLQKPGQSPQLLIYYVSEHYTGVPDRFSGSGYGTDFTLKISRVEAEDVGVYYCQQHHRFPLTFGQGTKLEIKRTVAAPSVFIFPPSDEQLKSGTASVVCLLNNFYPREAKVQWKVDNALQSGNSQESVTEQDSKDSTYSLSSTLTLSKADYEKHKVYACEVTHQGLSSPVTKSFNRGEC", "notes": "single antibody chain, co-expressed; also called HJ-1-L2; HJ-3-L2"}, "B5": {"name": "HJ-3-H2 (other)", "heavy": "EVQLVQSGAEVKKPGSSVKVSCKASGYTFSNYLIEWVRQAPGQGLEWIGVIDPGVGDTNYNENFKGRATLTADKSTSTAYIELSSLRSEDTAVYYCAREDNTGTAFDYWGQGTTVTVSSASTKGPSVFPLAPSSKSTSGGTAALGCLVKDYFPEPVTVSWNSGALTSGVHTFPAVLQSSGLYSLSSVVTVPSSSLGTQTYICNVNHKPSNTKVDKKVEPKSCDKTHTCPPCPAPEAAGGPSVFLFPPKPKDTLMISRTPEVTCVVVDVSHEDPEVKFNWYVDGVEVHNAKTKPREEQYNSTYRVVSVLTVLHQDWLNGKEYKCKVSNKALPAPIEKTISKAKGQPREPQVCTLPPSREEMTKNQVSLSCAVKGFYPSDIAVEWESNGQPENNYKTTPPVLDSDGSFFLVSKLTVDKSRWQQGNVFSCSVMHEALHNHYTQKSLSLSPGKDYKDDDDK", "notes": "also called chain 2 of HJ-3"}, "B6": {"name": "HJ-1-H2 (other)", "heavy": "B5 heavy", "notes": "also called chain 2 of HJ-1"}, "B7": {"name": "HJ-2-H1 (other)", "heavy": "EVQLVESGGGLVQPGGSLRLSCAASGFTFSHYYMAWVRQAPGKGLEWVTSISYEGDITYYGDSVKGRFTISRDNSKNTLYLQMNSLRAEDTATYYCASQTLRESFDYWGQGTLVTVSSASTKGPSVFPLAPSSKSTSGGTAALGCLVKDYFPEPVTVSWNSGALTSGVHTFPAVLQSSGLYSLSSVVTVPSSSLGTQTYICNVNHKPSNTKVDKKVEPKSCDKTHTCPPCPAPEAAGGPSVFLFPPKPKDTLMISRTPEVTCVVVDVSHEDPEVKFNWYVDGVEVHNAKTKPREEQYNSTYRVVSVLTVLHQDWLNGKEYKCKVSNKALPAPIEKTISKAKGQPREPQVCTLPPSREEMTKNQVSLSCAVKGFYPSDIAVEWESNGQPENNYKTTPPVLDSDGSFFLVSKLTVDKSRWQQGNVFSCSVMHEALHNHYTQKSLSLSPGKDYKDDDDK", "notes": "also called chain 2 of HJ-2"}, "B8": {"name": "HJ-4-H1 (other)", "heavy": "B7 heavy", "notes": "also called chain 2 of HJ-4"}},
  "key": {"[1]": {"molecular_target": "T1, Heavy chain of B0 (with a hole modification)", "T1 construct": "single antibody chain, co-expressed; also called B-H1 of B/U-2", "T1 sequence (heavy, as listed by the source)": "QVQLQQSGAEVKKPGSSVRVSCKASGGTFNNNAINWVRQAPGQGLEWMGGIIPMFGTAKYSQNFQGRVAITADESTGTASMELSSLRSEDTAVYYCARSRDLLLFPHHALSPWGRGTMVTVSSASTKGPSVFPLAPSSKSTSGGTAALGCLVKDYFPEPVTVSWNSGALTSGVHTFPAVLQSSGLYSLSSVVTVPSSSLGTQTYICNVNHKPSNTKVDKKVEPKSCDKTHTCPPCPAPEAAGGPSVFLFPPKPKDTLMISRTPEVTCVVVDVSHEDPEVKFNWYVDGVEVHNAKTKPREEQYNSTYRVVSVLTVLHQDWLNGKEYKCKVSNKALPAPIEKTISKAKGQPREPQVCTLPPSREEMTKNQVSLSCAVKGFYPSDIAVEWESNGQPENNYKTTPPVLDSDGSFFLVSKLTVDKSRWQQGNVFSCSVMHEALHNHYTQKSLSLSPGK", "experiment": "co-expression (B/U-2), mass spectrometry"}, "[2]": {"molecular_target": "T2, Heavy chain of U0 (with a knob modification)", "T2 construct": "single antibody chain, co-expressed; also called B-H2", "T2 sequence (heavy, as listed by the source)": "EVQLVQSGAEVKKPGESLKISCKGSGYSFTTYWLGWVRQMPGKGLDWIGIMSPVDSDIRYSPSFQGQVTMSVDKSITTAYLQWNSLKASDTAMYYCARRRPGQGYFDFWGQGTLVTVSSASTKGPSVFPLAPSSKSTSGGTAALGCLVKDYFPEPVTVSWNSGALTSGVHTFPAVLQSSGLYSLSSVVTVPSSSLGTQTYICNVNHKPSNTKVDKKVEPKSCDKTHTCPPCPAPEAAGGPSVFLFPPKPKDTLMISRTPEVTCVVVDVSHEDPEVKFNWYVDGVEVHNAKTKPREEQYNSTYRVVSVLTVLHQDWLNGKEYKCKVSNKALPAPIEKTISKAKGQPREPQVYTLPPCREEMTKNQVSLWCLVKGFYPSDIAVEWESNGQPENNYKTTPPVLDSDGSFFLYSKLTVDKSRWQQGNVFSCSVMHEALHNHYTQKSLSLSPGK", "experiment": "co-expression (B/U-2), mass spectrometry"}, "Heavy chain of D0": {"molecular_target": "T3, Heavy chain of D0 (Homo sapiens (Human), UniProt P0DOX5 1-449 = IgG part)", "T3 construct": "single antibody chain, co-expressed", "experiment": "co-expression in HEK293E cells, LC-MS for the mispaired molecule"}, "human PDL1-his [3]": {"molecular_target": "T4, human PDL1-his (human, UniProt Q9NZQ7 19-239)", "T4 construct": "bought; also called hPDL1", "T4 sequence (Q9NZQ7 19-239 limits assumed)": "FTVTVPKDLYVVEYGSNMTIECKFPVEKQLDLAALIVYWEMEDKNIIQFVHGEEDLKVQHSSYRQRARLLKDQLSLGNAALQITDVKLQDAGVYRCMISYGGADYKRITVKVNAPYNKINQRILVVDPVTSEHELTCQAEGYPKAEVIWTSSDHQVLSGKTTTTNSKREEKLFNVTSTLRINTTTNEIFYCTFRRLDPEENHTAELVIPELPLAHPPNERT", "experiment": "SPR Biacore T200, antibody captured, hPDL1 injected after saturation with TIGIT"}, "human TIGIT-his [4]": {"molecular_target": "T5, human TIGIT-his (human, UniProt Q495A1 22-141, limits assumed)", "T5 construct": "bought; also called hTIGIT", "T5 sequence (looked up)": "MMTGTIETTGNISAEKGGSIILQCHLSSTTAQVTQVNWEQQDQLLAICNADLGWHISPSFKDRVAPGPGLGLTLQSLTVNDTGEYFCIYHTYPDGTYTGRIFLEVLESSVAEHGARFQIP", "experiment": "SPR Biacore T200, antibody captured, TIGIT injected after saturation with hPDL1"}, "human TIGIT-his [5]": {"molecular_target": "T5, human TIGIT-his", "experiment": "SPR Biacore T200, antibody captured on Protein A chip"}, "human PDL1-his [6]": {"molecular_target": "T4, human PDL1-his", "experiment": "SPR Biacore T200, antibody captured on Protein A chip"}, "[7]": {"molecular_target": "T6, HJ-3-H1 (heavy chain of H0, knob, CH1 replaced with T.10-L1)", "T6 construct": "single antibody chain, co-expressed", "experiment": "co-expression of three chains, mass spectrometry"}, "HJ-3-L1": {"molecular_target": "T7, HJ-3-L1", "T7 construct": "also called chain 3 of HJ-3", "experiment": "mass spectrometry of the product of four co-transfected chains of HJ-3; mispairing of heavy chain 2 with light chain 3"}, "HJ-1-L1": {"molecular_target": "T8, HJ-1-L1", "T8 construct": "also called chain 3 of HJ-1", "experiment": "mass spectrometry of the product of four co-transfected chains of HJ-1; mispairing of heavy chain 2 with light chain 3"}, "HJ-2-L2": {"molecular_target": "T9, HJ-2-L2", "T9 construct": "also called chain 3 of HJ-2", "T9 sequence (light, as listed by the source limits assumed)": "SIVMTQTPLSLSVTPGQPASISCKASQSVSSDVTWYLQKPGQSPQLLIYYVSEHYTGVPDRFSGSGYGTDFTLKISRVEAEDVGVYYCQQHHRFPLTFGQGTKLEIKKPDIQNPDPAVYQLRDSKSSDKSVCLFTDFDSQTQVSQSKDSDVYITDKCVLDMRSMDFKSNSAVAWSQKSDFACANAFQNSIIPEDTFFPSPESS", "experiment": "mass spectrometry of the product of four co-transfected chains of HJ-2; mispairing of heavy chain 2 with light chain 3"}, "HJ-4-L2": {"molecular_target": "T10, HJ-4-L2", "T10 construct": "also called chain 3 of HJ-4", "experiment": "mass spectrometry of the product of four co-transfected chains of HJ-4; mispairing of heavy chain 2 with light chain 3"}},
  "data": [
    {"binder": "B1", "values": [
      {"measurement": "binding result", "setting": "[1]", "result": "no binding"},
      {"measurement": "binding result", "setting": "[2]", "result": "no binding"}
    ]},
    {"binder": "B2", "values": [
      {"measurement": "binding result", "setting": "Heavy chain of D0", "result": "no binding"}
    ]},
    {"binder": "B3", "values": [
      {"measurement": "Kd", "setting": "human PDL1-his [3]", "result": 0.0303, "unit": "nM"},
      {"measurement": "koff", "setting": "human PDL1-his [3]", "result": "8.12e-05", "unit": "s⁻¹"},
      {"measurement": "kon", "setting": "human PDL1-his [3]", "result": "2.68e+06", "unit": "M⁻¹ s⁻¹"},
      {"measurement": "Kd", "setting": "human TIGIT-his [4]", "result": 0.0954, "unit": "nM"},
      {"measurement": "koff", "setting": "human TIGIT-his [4]", "result": 0.00012, "unit": "s⁻¹"},
      {"measurement": "kon", "setting": "human TIGIT-his [4]", "result": "1.26e+06", "unit": "M⁻¹ s⁻¹"},
      {"measurement": "Kd", "setting": "human TIGIT-his [5]", "result": 0.097, "unit": "nM"},
      {"measurement": "koff", "setting": "human TIGIT-his [5]", "result": 0.000123, "unit": "s⁻¹"},
      {"measurement": "kon", "setting": "human TIGIT-his [5]", "result": "1.27e+06", "unit": "M⁻¹ s⁻¹"},
      {"measurement": "Kd", "setting": "human PDL1-his [6]", "result": 0.0257, "unit": "nM"},
      {"measurement": "koff", "setting": "human PDL1-his [6]", "result": "9.53e-05", "unit": "s⁻¹"},
      {"measurement": "kon", "setting": "human PDL1-his [6]", "result": "3.71e+06", "unit": "M⁻¹ s⁻¹"}
    ]},
    {"binder": "B4", "values": [
      {"measurement": "binding result", "setting": "[7]", "result": "no binding"}
    ]},
    {"binder": "B5", "values": [
      {"measurement": "binding result", "setting": "HJ-3-L1", "result": "no binding"}
    ]},
    {"binder": "B6", "values": [
      {"measurement": "binding result", "setting": "HJ-1-L1", "result": "no binding"}
    ]},
    {"binder": "B7", "values": [
      {"measurement": "binding result", "setting": "HJ-2-L2", "result": "no binding"}
    ]},
    {"binder": "B8", "values": [
      {"measurement": "binding result", "setting": "HJ-4-L2", "result": "no binding"}
    ]}
  ]
}
